Results: a protein production outcome set (Wang et al. 2014)

Assay: label from the status in PepcDB records

MFEYRCSSIDWKPSPVVALATSADGSQVAAAREDGSLELWLVSPGASSWHCQLIIHGDPKSRISHLAWFGTGSKGSSSARLFSSSIDGSISEWDLFDLKQKVVLDSIGFSIWQIALAPISIEAESKEAKLIQNGYLSEKSDDEEESGVEDDSELDELDEKVEALDRHLAAACDDGCVRIYYISESDKLTYYRSLPRVTGRALSVTWSADAQRIFSGSSDGLIRCWDANLCHEVYRITVGLGGLGNGSELCIWSLLSLRYGVLVSGDSTGSVQFWDSQHGTLLQAHSNHKGDVNALAASPSHNRVFSAGADGQVILYKLSGGTSRSQDFKPSSAQKWDYIGCVRAHTHDIRALTVAVPISWEGSIPDRNAKVTSPKQRRKEPAGFSYHKWAHLGVPMLISAGDDAKLYAYSVQEFTKFPPHDICPAPQRVPMQMVHNTVFNQTSLLLVQDSCSLDILRIHISNDSSGRVSTKPLVRVKSKDARKIICSAISNTGSLFAYSDQVRPSLFELKKNKIGKNPWSANRKRLPNLPFAHSMVFSCDCSRLIIAGHDRRIYIVDVGSMELLHSFTPRQEGQEGESPPHEPPITKLYTSSNDDWLAAINCFGDIYVFNLETQRQHWFISRLDGASVAAAGFHPRDNNVIVISTSSNQVFALDVEARELSKWSLLQTFCLPKSYQNFPGEVVGLSFSPSPCSSSVIIYSSRAKCLIEFGKPAEQDEDTDTPCNLSEKLEGKLASISMKLGNGAQKRRLEEYQKESKSNKRKKFEMVTSKHPVLYLRHLSKSAILVIEKPWMEVIKNLDTQPVHRHIFGT
protein production: failed

MFFNKKNNQDELKKLAATEAAKSITTEITLGVGTGSTVGFLIEELVNYRDKIKTVVSSSEDSTRKLKALGFDVVDLNYAGEIDLYIDGADECNNHKELIKGGGAALTREKICVAAAKKFICIIDESKKVNTLGNFPLPIEVIPMARSYIARQIVKLGGQPVYREQTITDNGNVILDVYNLKIDNPLKLETELNQITGVVTNGIFALKPADTVIMATKDSNIVVL
protein production: not failed

MFGLSKRAITILFGLLALAFALGAILLFTPQAGQQTRGKPVLWVNGKALYELDLLRLQGNDPLYAASPEGLLKTLVDTYFLEQVILTEALKQDAARVRVSSAEVRQEVNRIREQFGLKDKAAYEQFLNQVGYTDAQLRAEVKTQLQIQKRLEQIRSGAKPTEEEVRFYYEVFKENYRTEPRVKARQIVVDDKALAEELAAKAKAGEDFAALARQHSKVGAEQGGALGAGPGEAEPKPVTQVVFPTEVGEAVFALKGPGVVGPIAAGGRYYIVKVEEYLPSTLPAFEEVKDRVAQDAERAKGNGVLEAYLEELRKKAQVRFAEDNPYAYQNPPVAKVNEKEILLSEVLQPVFSNQQTVALVQQGLGELAVQFFLPQTLENLIDRELLVEAARKSGKPFIGSKAEIAEAYLRYETRDVTASEEEARAFYSENPALFTVPASAKVIGVNFKEEAQAKAFRAAALRGGDLEALAKAQEGTVTDYGTVNPNQLPAVLDRLVFKITETFPQGPLGEVSEVIKMEDGSYTVLLISDRKAEELKGFAQVAEEARQGAVNRKRSEKAQALIQALREEAKIENRLAEVLQALTPKTPSQDQPNSQEQPQPEEAPANNP
protein production: failed

MFGPFKPAPHIAELPAEKIDSTYKRLRWQVFAGIFFGYAAYYFVRANFDLAQPGLIQAGLYSKAELGVIGSAAGLAYGLSKFVMAGMSDRSNPRVFLPFGLLLSGLCMTLMGLFPWATSGIAIMWVMIFLNGWFQGMGWPPCGRTMVHWWSKSERGTIVSIWNTAHNIGGMVPGAMVLLASAIFFSTHGIEAQAKDVWQQSLYFPGIAAMIFAIPVYFVMRDTPQSCGLPSIEKWRNDYPDDYNEKTYENDLTAKEIFVTYVLKNKLLWYIAIANVFVYLIRYGVLKWSPVYLSEVKHFNIKGTAWAYTIYELAAVPGTLLCGWVSDKVFKGKRGLTGFIFMILTTAAVVAYWMNPATPEAELANYSAWYENPYQLTDFVLMTLIGFLIYGPVMLIGLHALELAPKKAAGTAAGFTGLFGYLGGTVSASAVIGWAAQHYGWDGGFYVMIGGGVLAVLLLLIVMVEEGKHKAKLGDTYGTK
protein production: failed

MFIMQPEDTMTLIHDIILASWDILLEAAPYVLFGFFVAGLLKAYVPASFVARHLGRGHVGPVFKAALFGIPLPLCSCGVIPAAAGLRQQGASKGATTSFLIATPETGVDSMAVTWALLDPVMTVARPFAALLTSVAAGLMVDLFPERKRGESEISPPVMSPSRDAALHDGPTTLPAPVIAPVLHGAAGIAAAGSVSLGPIREHAACTCSGHASVAASACCGTSHSVSAPSGASCGCGSAAHAHSGTGCCGHDTPIGQVSGGFSGVVERFRGGMRFAFGELVADIGGWLLLGVVLAAVITILIPDDLFSGTFASGIGGILLMMVVGIPLYVCATASTPIAAAFALKGISPGAALVFLLAGPATNVATITVVARMLGRKAAVIYVAVIGVMSVALGLAVNMLYGWLGMGVTGWVQGSADAEPGMLSAVAAVVLLLLVLYQWLPALVARLRGEAHPAGCGCGH
protein production: failed

MFITFEGIDGSGKTTQSHLLAEYLSEIYGVNNVVLTREPGGTLLNESVRNLLFKAQGLDSLSELLFFIAMRREHFVKIIKPSLMQKKIVICDRFIDSTIAYQGYGQGIDCSLIDQLNDLVIDVYPDITFIIDVDINESLSRSCKNGYEFADMEFYYRVRDGFYDIAKKNPHRCHVITDKSETYDIDDINFVHLEVIKVLQMV
protein production: not failed

MFIYGSDRLGGKMDINGFIEELDSLYTERRINDVEPFFNESIEQAKKENDLAAQFTILNEMMGFFRDTSQFEKSIKACNDCIELMKKMGIEGTVDYATSLQNVANAYRAAGKLAESLEVYKEVFSIYNENIPSDDYRMASLNNNIALLYQEMNDFPMAVQHLKKALSIIEKIEGMDIEVATTYTNLAASLIEINQASQAEDYLKKALEIFDRDEVKNFHYSGALCAMASVKCSLNQYEEAAKLYEKALPEIEANMGRGSAYNITKENLAKVFDKIKEEKKELTGIELAKSFYEEYGKDMIHNNFSEYEDKIAVGFVGEGSERFGFDDVYSRDHDFGPGFCMWITEDVYEKIGEKLQDEYNKLPKSYKGITRVDTIMAEGRVGVCVVEDFYKKYTGSGDGNLTLEQWINLEDYKIATVTNGEVFRDDLGYFSKIRRKFENQPFQARLVKLARQLGAMAQTGQSNYERAMARKDYVTAQICISDFMKETMKCVYILNNKFAPYYKWLFKGVSRLDGTEKIVSLLEKLSQLPAQKNAWDGYLYDNTKFNEKDEKAIIMEEIAKIIIDKLLELKLIKNRNSNFLNDYVRPIMDLAEGKVEMFDREKTIDKIVKLEFEAFDKVQNVGGRASCQNNWPFFYVMRKSQYMTWTDEMLECICNLWEENKAKGWNMITEKYGRMMEHTSPEEYKKIKDNFPEKSERTIAIVNQIAQIQVDWMKDFAKSYPKLASNARDITSDADQIDNTSYETYLKGELLTYSEELLKLYAQFIVNLAREGKNLAYMTIENTAHLQGYATLEAAESSIR
protein production: failed

MFKGLRYLTFVFGGLLGILLAYGFGQVVELELSKFAVISIYSIFAIIFGIIFYLLFPVILKKLTVNFENMIKKAQKTPTSDIVTAIIGLIVGLIIAFLISLPISNIKFPVIGNLLSATITIFIYCALGFIGIKIAVDKKEEILKFKLFSREKSFKKGHVYPKILDTSVIIDGRIYDIIKTGFLEGPIIIAMFMVKELQYIADSEDPNRRQRGRRGLDILDLLQNEKNIEIKIVDKDYKNIKEVDHKLLKLTEDYHGKLITNDYNLNKVASLQKISILNINELALAVKPVVIQGEKLIVEVINRGKEPEQGLGYLSDGTMIVVEDGKDYIGQTIETTVTSILQTPAGKMIFTRKNLK
protein production: failed

MFKIQEVRELIKLIDSSNIDEFEYKKDGTTIKMKKRGNEVVAVQAPVAKQAVQPVAPVEVETTVAAAQVEVPKQEEKKAVQNENLHKITSPMVGTFYSSSSSSPDTPPYVSVGDRVSKDSIVCIVEAMKLFNEIDADVDGEIVEILVNNGQLVEYGQPLFLVKA
protein production: failed

MFKRIAQTAGFTGLLAALLLTLLQSFWVVPLIQQAETYEKAPAEHVHEHADGAVAEHSHAHDEAAWEPENGWQRVLSTTGGNLVVAVGFALMLAGLYTLRAPGRTAQGAWWGLAGFAVFVLAPTLGLPPELPGTAAAELSQRQLWWIGTAASTAAGLALLVFGQNWLLKVLGAAILVVPHVIGAPQPLVHESLAPEALESQFRVASLLTNALFWVALGLISAWLFRRSNVHTDNAHSNHA
protein production: failed

MFKRIGLISIALSLNTISFTSEACSALVFNKNKPATVAVNLDWKYREGAFVIHPRNAMMVSSVDYHSMHPLIWKSQYGSVIFHGGNRFKAGPSADGMNEKGLTASILMLDSSIYPSNSELPALKTTEWVQYILDNFQTVQEVIDDSSNYQLVADTYRGITMNVHLMVSDAEGKSAVFEYLDGKLVIHTQDNLTTPVLTNTDYKLSLALLEEYQDHGGSKALPGGYDSKSRFVRAAHYLKKLPSFIAKEEHIAYAFNGLNVVTQAPGTSSPTQLSMVFDIPTKTIYFRSINEAALRVIPMDSIDFDYLYQPIALNVYQHLSGDVTDKFQPMIG
protein production: failed

MFKRLKDSALLFWSLEILIVATLIWVCTNIGFLFQPIGTFLSVVFMPILISGFLFYMLNPLVKLLTKVHYKKFRISRTGAVAIVFVLLFGLLVWGAVSLLPRLVSQVTQLIYNLPSIATEMQKAATKLINNSSVLKRIDISSYTKQFNGEISKYSQNFLSSLSSSVVTVISTITSVTIMAITIPVVLFYMLKDSEKFIPAISRFLPKKQRPEVIGLLQKMGDTISSYISGQVIECLFVGTFTAIGYMLISQPYGLLLGVIAGLTNIIPYVGPYIGIAPSLIVAFTKSPMQVVYVIIVVVIVQQVDGNLIYPNIIGRTLKIHPLTIIILLLAAGNIAGILGMILAIPFYAVVRTVVIYLYNIVELRNEEHLRKQTTVYQPQPAKATKADLTTTTKSKK
protein production: failed

MFKTVIIMLMAVSAGTIGDILLAKGMKELGDLSAMNLRGILNVAGQALTSPKLIFGTAMLAIFFFLWLAVLSWEDLSVALPMQALNYVLVAFLSQWFLGETVSPLRWTGTIMVCVGVMLITKSGTP
protein production: failed

MFLDYFALGLLIFVALVIFYGIIVIHDIPYEIAKEREHPHQDAIHYAGWVSLFTLHALWPFLWIWATLWRKERGWGFQKLEAEQHDIHHRVDVLIDEVKQLRTELETLKTSSLSVPKSTPAASTSEEKQ
protein production: failed

MFLRGNPDKTEPAFDARPLKTKEIARFGEGTPLPWLDRHALACVDASGDLRDVLKSTALAITLFCACTGPAMAYAPDETPIVIGRSTLLESKVLGQLRRINVHTPADYATSGKTYPVLFLLDGGEREDFPHIAGLAQLGELSWTYREMIVVGIEGIDRRHDLTHPSTVAQEQADFPTLGGSAAYRRFLSEELKPWVAARYRTNGESAIMGESLAGLFVIETLLKQPTLFDAYIAASPSLWWSDQALARGAPADIARWPALGSRKLYLTIGDEGSTMQEGVDKVMAAIGAAKPAGLTLVYDPMPHEQHSTIYHPAALKAFRTVWPGPRPD
protein production: failed

MFLRIDRLQIELPMPKEQDPNAAAAVQALLGGRFGEMSTLMNYMYQSFNFRGKKALKPYYDLIANIATEELGHIELVAATINSLLAKNPGKDLEEGVDPESAPLGFAKDVRNAAHFIAGGANSLVMGAMGEHWNGEYVFTSGNLILDLLHNFFLEVAARTHKLRVYEMTDNPVAREMIGYLLVRGGVHAAAYGKALESLTGVEMTKMLPIPKIDNSKIPEAKKYMDLGFHRNLYRFSPEDYRDLGLIWKGASPEDGTEVVVVDGPPTGGPVFDAGHDAAEFAPEFHPGELYEIAKKLYEKAK
protein production: not failed

MFLSVVTVAFRNYEGVVKTWRSLRNLARDPGLSFEWIVVDGGSEDGTREFLQKRHGEFNLRFISEKDRGIYDAMNKGIALAQGRYTLFLNSGDAFHDDAALFVRQLARQKGEAMYIGDALLDFGGGHKIRRKAKPGYYIYHSLPASHQAIFFPTAALKKYPYDLQYHVSSDYALAARLYKAGYPFRRINGLVSEFSMGGVSTSNNLELCQDAKNVQRKILRVPGFWAQLSYLLRLKTTGKTKARYNKVLEHHHHHH
protein production: failed
